Data set [1] has as its target T1, 14-3-3σ (Homo sapiens, UniProt P31947).
T1 sequence (P31947 with tags, fused parts or gaps): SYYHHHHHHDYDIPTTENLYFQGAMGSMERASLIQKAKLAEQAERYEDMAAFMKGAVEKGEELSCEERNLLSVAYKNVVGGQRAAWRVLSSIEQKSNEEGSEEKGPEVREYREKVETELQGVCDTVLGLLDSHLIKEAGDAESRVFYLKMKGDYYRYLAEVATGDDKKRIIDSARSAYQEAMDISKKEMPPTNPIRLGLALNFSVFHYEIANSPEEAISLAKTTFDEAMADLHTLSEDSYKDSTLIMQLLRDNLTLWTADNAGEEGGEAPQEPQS
Kind of data set: Fluorescence polarization competition/binding experiment. The settings on record: 14-3-3σ 0.25 μM, fluorescent peptide 5 nM, 27° C., immediately after mixing.

A short description of data set [2]: Peptide stability in buffer and intrinsic reactivity with lysine and cysteine. It is filed as physicochemical. The settings on record: room temperature, timescale of days. The procedure:
The intrinsic reactivity and stability of the active peptides with their labeling rates were compared). Their stability was tested in buffer and in the presence of lysine and cysteine at room temperature. […] The reactivity towards cysteine was much higher—the peptides reacted with cysteine to generate both Michael adducts as well as substitution products in which the thiol peptide is released. Peptides SEQ ID 3, SEQ ID 8 and SEQ ID 11 were more than >50% reacted within 2.5 hours.
The LS/MS runs for peptides were performed using the same instrument with a C18-CSH column (300 Å, 1.7 μm, […]) using a gradient starting from 1% B for 1 minute, rising to 95% B in 4.5 minutes, holding at 95% B for 0.75 minutes, then decreasing to 1% B in 0.75 minutes and holding at 1% B for 1 minute. MS data were collected at a range of 80-2500 m/z, using identical conditions for ionization as with the protein.

Data set [3] concerns the target T1, 14-3-3σ. Kind of data set: Covalent labeling of 14-3-3σ by peptides, intact protein LC/MS. The settings on record: for labeling of 14-3-3σ within 5 hours / labeling of 14-3-3σ after 48 hours / covalent labeling of 14-3-3σ with the expected adduct mass: 14-3-3σ 2 μM; for labeling of 14-3-3σ within 5 hours: time course; for labeling of 14-3-3σ after 48 hours: room temperature; for covalent labeling of 14-3-3σ with the expected adduct mass: peptide 200 μM, 4° C. overnight.

The next data set deals with 14-3-3 isoforms. Description: Binding to 14-3-3 isoforms using LC-MS qTOF. The settings on record: protein:peptide 1:5, overnight, 4° C. The procedure: The 14-3-3 isoforms were buffer-exchanged into complexation buffer (20 mM HEPES pH 7.5, 100 mM NaCl, 10 mM MgCl2) and mixed with the peptides (3/8) in a 1:5 molar stoichiometry (protein:peptide) at a final concentration of 10 mg/mL. The complexes were buffer-exchanged into milliQ+0.1% formic acid after overnight incubation at 4° C.
UPLC-QToF-MS analysis was performed on a Waters (Milford, MA, USA) Acquity I-Class UPLC system coupled to a Waters Xevo G2 quadrupole time-of-flight (QToF) mass spectrometer. The devices were controlled by MassLynx Software (version 4.1, Waters, MA, USA). Full scan in positive electrospray ionization (ESI+) mode was used as MS acquisition mode with an acquisition range from 200-2000 m/z. […] The samples concentration were 0.01-0.1 mg/mL, and the injection volume was 1 μL. Deconvolution was performed by the MaxEnt1 option of the MassLynx software. Errors were calculated using the MaxEnt Errors option.

A short description of data set [4]: Differential scanning fluorimetry for Im-E9 complexes. The settings on record: SYPRO Orange, protein 40 μM. Type of data set: physicochemical.
Protocol: SYPRO Orange (X5000 stock) was diluted 200-fold in buffer, and from this stock 13 μl were added to each sample, diluting the protein to 40 μM. Each sample were split into 3 technical replicates and heated in a thermal cycler over 1.5 hours to 95° C. while measuring the fluorescence.
Data set [5] has as its target T2, human 14-3-3σ with an N-terminal His6-tag (SEQ ID 28) (human).
T2 chain: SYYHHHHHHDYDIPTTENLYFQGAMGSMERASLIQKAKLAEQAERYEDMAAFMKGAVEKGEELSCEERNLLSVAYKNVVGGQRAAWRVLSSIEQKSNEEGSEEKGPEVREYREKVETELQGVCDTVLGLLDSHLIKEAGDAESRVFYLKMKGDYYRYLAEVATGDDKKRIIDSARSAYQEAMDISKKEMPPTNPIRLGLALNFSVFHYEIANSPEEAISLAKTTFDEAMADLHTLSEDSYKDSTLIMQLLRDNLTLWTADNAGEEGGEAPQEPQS
Kind of data set: 2 µM 14-3-3σ with 5 µM peptide, 48 hours at room temperature.

In data set [6] the target is T2, human 14-3-3σ with an N-terminal …. Description: intact protein LC/MS; 200 µM peptide, 2 µM 14-3-3σ, 4° C. overnight.
The target is the same in data set [7]. Description: time course, intact protein LC/MS; 5 µM peptide, 2 µM 14-3-3σ.
Data set [8] shares this target. Kind of data set: not told how it was measured; probe of the fluorescence polarization experiment. (Fluorescence polarisation rises when a labelled molecule tumbles more slowly, as on binding a larger partner.)

Non-standard residues stand in square brackets, D forms with d. Residues, ends and D or L forms follow the SMILES beside them. Primed or numbered codes have the meaning given here. No end group written: not given here. *: point of attachment. Pra′ = its azide, alkyne or alkene has reacted where a group follows in round brackets; methacrylate = methacrylate-modified cysteine (mC); pT = C[C@@H](OP(=O)(O)O)[C@H](N)C(=O)O; mC = methacrylate-modified cysteine; pS = N[C@@H](COP(=O)(O)O)C(=O)O; BODIPY = not defined here; Dab = NCC[C@H](N)C(=O)O; X1 = C=C(C*)C(=O)OCC; ClAc = O=C(CCl)*

As a reminder, the Kd is the constant that tells how readily two partners part at equilibrium. High values mean lower affinity, low ones higher affinity.

Regarding “Ac-RAHpSSPAmCLQ-NH2 (Ac-RAH[pS]SPAC(methacrylate)LQ-NH2) [SEQ ID 10]”, the “displacement of the fluorescent binder at 5 μM” value with 14-3-3σ [1] (peptide 5 μM) is “had sufficient affinity to displace the fluorescent binder”.

`C=C(CSC[C@H](NC(=O)[C@H](COP(=O)(O)O)NC(=O)[C@H](C)NC(=O)[C@H](CO)NC(=O)[C@H](CCCNC(=N)N)NC(C)=O)C(=O)N1CCC[C@H]1C(=O)N[C@@H](CO)C(=O)N[C@@H](CC(C)C)C(N)=O)C(=O)OCC` [SEQ ID 3, Ac-RSApSmCPSL-NH2] (Ac-RSA[pS]C(X1)PSL-NH2): the “stability in buffer over days” value in data set [2] is “remained unmodified even after 3 days”. Moreover, the “labeling of 14-3-3σ within 5 hours” value at 14-3-3σ [3] (peptide 5 μM, 25° C.) was determined as 60%. For the same molecule, the “labeling of 14-3-3σ after 48 hours” value at 14-3-3σ [3] (peptide 5 μM) is recorded as ~ 75%. The “covalent labeling of 14-3-3σ with the expected adduct mass” value (from here on “covalent labeling of 14-3-3σ”) on 14-3-3σ [3] was 51%.

With `C=C(CSC[C@H](NC(=O)[C@H](CO)NC(=O)[C@H](C)NC(=O)[C@@H]1CCCN1C(=O)[C@H](CO)NC(=O)[C@H](COP(=O)(O)O)NC(=O)[C@H](Cc1c[nH]cn1)NC(=O)[C@H](C)NC(=O)[C@H](CCCNC(=N)N)NC(C)=O)C(=O)N[C@@H](CCC(N)=O)C(N)=O)C(=O)OCC` [SEQ ID 11, Ac-RAHpSSPASmCQ-NH2] (Ac-RAH[pS]SPASC(X1)Q-NH2), the “stability in buffer over days” value in data set [2] was “formed a new product with the same mass as the original peptide”. Also, at 14-3-3σ [3] (peptide 5 μM), the “labeling of 14-3-3σ after 48 hours” value is 100%. Besides, the “free (non-labelled) 14-3-3σ remaining within 2.5 hours” value at 14-3-3σ [3] (peptide 5 μM, 25° C.) is “less than 5%”. For the same molecule, the “covalent labeling of 14-3-3σ” value at 14-3-3σ [3] stood at 11%.

Take “Ac-SHpTLmCS-NH2 (Ac-SH[pT]LC(methacrylate)S-NH2) [SEQ ID 2]”: the “displacement of the fluorescent binder at 200 μM” value in the data set with 14-3-3σ [1] (peptide 200 μM) was “all peptides except peptide SEQ ID 2 displaced the binder”.

For “Ac-RAHpSSPASLX-NH2 (Ac-RAH[pS]SPASL[Dab](ClAc)-NH2) [SEQ ID 12, chloroacetamide warhead peptide that reacts with 14-3-3σ via Cys38, used as a positive control]”, in the data set on 14-3-3 isoforms, the “labeling of 14-3-3 isoforms” value is listed as “labeled only the sigma isoform”.

For `C=C(CSC[C@H](NC(=O)[C@H](COP(=O)(O)O)NC(=O)[C@H](Cc1c[nH]cn1)NC(=O)[C@H](C)NC(=O)[C@H](CCCNC(=N)N)NC(C)=O)C(=O)N1CCC[C@H]1C(=O)N[C@@H](C)C(=O)N[C@@H](CO)C(=O)N[C@@H](CC(C)C)C(=O)N[C@@H](CCC(N)=O)C(N)=O)C(=O)OCC` [SEQ ID 8, Ac-RAHpSmCPASLQ-NH2] (Ac-RAH[pS]C(X1)PASLQ-NH2), in data set [2], the “stability in buffer over days” value is on record as “formed a new product with the same mass as the original peptide”. Moreover, the “labeling of 14-3-3σ within 5 hours” value at 14-3-3σ [3] (peptide 5 μM, 25° C.) is reported as 80%. In addition, at 14-3-3σ [3] (peptide 5 μM), the “labeling of 14-3-3σ after 48 hours” value is reported as 90%. In addition, on 14-3-3σ [3], the “covalent labeling of 14-3-3σ” value is 35%.

In the case of “Im9: immunity protein, inhibitory partner of the E9 nuclease, in its free (unmodified) form”, in [4], the “unfolding (melting) temperature” value is “around 50 °C”.

B1: Peptide SEQ ID 11, Ac-RAHpSSPASmCQ-NH2 (peptide)
peptide: Ac-RAH[pS]SPASC(methacrylate)Q-NH2
Regarding B1, the “covalent labeling (%)” value in data set [5] turned out to be 100%; in [6] it was 11%.

B2: Peptide SEQ ID 1, Ac-SHpTmCPS-NH2 (peptide)
peptide: Ac-SH[pT][mC]PS-NH2
Turning to B2, the “covalent labeling (%)” value in data set [6] is approximately 10%.

B3: Peptide SEQ ID 3, Ac-RSApSmCPSL-NH2 (peptide)
peptide: Ac-RSA[pS][mC]PSL-NH2
Regarding B3, the “covalent labeling (%)” value was approximately 75% in [5] and 51% in data set [6]. The “fold increase of the rate of labeling at 37° C. against 25° C.” value in data set [7] is approximately 4 fold.

B4: BODIPY-labeled noncovalent binder for 14-3-3σ (SEQ ID 38) (peptide)
peptide: [Pra′](BODIPY)RAH[pS]PASL[Dab]
modifications: not fully specified (N-terminus, C-terminus); reading uncertain
B4 displayed a Kd in data set [8] of approximately 100 nM.

B5: Peptide SEQ ID 8, Ac-RAHpSmCPASLQ-NH2 (peptide)
peptide: Ac-RAH[pS][mC]PASLQ-NH2
For B5, the “covalent labeling (%)” value in [5] was 90%; in data set [6] it was 35%. Moreover, the “fold increase of the rate of labeling at 37° C. against 25° C.” value in [7] is approximately 4 fold.

For the origin of these results see patent publication US20260226096A1, “MODIFIED PROTEINS OR PEPTIDES FOR COVALENT TARGETING” (YEDA RESEARCH AND DEVELOPMENT CO. LTD., priority 2023, published 2026).
